Laboratory results reported in US20120207760A1 (THERACLONE SCIENCES, published 2012).

B1: TCN-523 (5248_A17) (antibody, V domains shown)
VH: QVQLVQSGAEVKKPGSSVKVSCKASGGSFSNYAFSWVRQAPGQGLEWMGGTIPLLGTTNYAQKFQGRVTISADQFTSTAYMELGSLRSEDTAVYYCTRRKMTTAFDSWGQGTLVTVSS
VL: QPVLTQPPSASASLGASVTLTCTLSSAYSNYKVDWYQQRPGKGPRFVMRVGTGGIVGSKGDGIPDRFSVLGSGLNRYLTIKNIQEEDESDYHCGADHGSGSNFVSPYVFGGGTKLTVL
B2: TCN-563 (5237_B21) (antibody, V domains shown)
VH: QVQLAQSGAEVKRPGSSVKVSCTASGGIFRKNAISWVRQAPGQGLEWMGGIIAVFNTANYAQKFQGRVKITADESGNTAYMELSSLRSDDTAVYYCASHPKYFYGSGSYPDFWGQGTLVTVSS
VL: QSALTQPRSVSGSPGQSVTISCTGSSSDVGASNSVSWYQQHPGKAPKLVIYDVTERPSGVPHRFSGSKSGNTASLTVSGLQPEDEADYFCCAYGGKYLVVFGGGTKVTVL
B3: TCN-533 (5256_A17) (antibody, V domains shown)
VH: QVQLVQSGADVKKPGSSVTVSCKASGGSFSNYGINWVRQAPGQGLEWMGGIIPLINAPNYAPKFQGRVTITADMFSNIVSLQLTSLRTDDTAVYYCARRKMTTAIDYWGQGTLVTVSS
VL: QPVLSQPPSASASLGASVTLTCTLSSGFDNYQVAWYQQRPGKGPRFVMRVGNGGNVASKGDGIPDRFSVSGSGLNRYLTIKNIQEDDESDYYCGADHGSGNNFVSPYVFGGGTKLTVL
B4: TCN-540 (5060_F05) (antibody, V domains shown)
VH: QVQLVQSGGGVVQPGRSLRLSCAASGFTFSSYAMHWVRQAPGKGLEWVAIISYDGNDQYYTDSVKGRFTISRDSSKVYLQMHRLRPEDTAVYYCAKEFETSGYFHGSFDYWGQGILVTVSS
VL: QSALTQPASVSGSPGQSITISCTGTSSDVGGYNYVSWYQQHPGKAPKLLIYEVTNWPSGVSNRFSGSKSGNTASLTISGLQAEDEADYYCSSYAGSSTWVFGGGTRVTVL
B5: TCN-530 (5248_H10a) (antibody, V domains shown)
VH: QVQLVQSGAEVRKPGSSVKVSCKASGGPFMSYAIGWVRQAPGQGLEWMGGINPVFGRPHYAQKFQGRVTIATDDSTKTSYMELSSLTSEDTGMYYCASRYSRSSPGTFESWGQGTLVTVSS
VL: EIVMTQFPATLSVSPGERVTLSCRASQSVSNNLAWYQQKPGQPPRLLIYDASTRATGVPAKFSGTGSGTEFTLSISSLQSEDFAVYYCQQYHNWPPSYSFGLGTKLEIK
B6: TCN-521 (3280_D18) (antibody, V domains shown)
VH: EVQLVQSGGGLVQPGGSLRLACVVSGFTVTSNYITWVRQAPGKGLEWVSVIYSHGRAYYSASVNGRFTISRHTSKNTVYLEMNSLRPEDTAVYYCAGGGLVGGYDEYFFDYWGQGTLATVSS
VL: ETVLTQSPGTLSLTPGERATLSCRVGQSVSGSHLAWYQQKPGQAPRLLIYGASSRATGIPDRFGGSVSGTDFTLTISRLEPEDSAVYYCQQYGDSRYTFGQGTKLEIK
B7: TCN-534 (5249_B02) (antibody, V domains shown)
VH: QVQLVQSGAEVKKPGSSVKVSCRESGGTFNGYTITWVRQAPGQGLEWMGGIIPMMGTVNYAQKLQGRVTITTDYFTKTAYMDLNNLRSEDTAMYYCVKIRYTGQQLLWGQGTLVTVSS
VL: DIQMTQSPSTLSASIGDRVTITCRASQSIASWLAWYQQKPGKAPKLLIYEAVNLESGVPSRFSGSGSGTDFTLTISSLQPDDFATYFCQHYGTISQTFGGGTKVEIK
B8: TCN-539 (5056_A08) (antibody, V domains shown)
VH: QVQLVESGGGVVQPGRSLRLSCAASEITFITYAMHWVRQAPGKGLEWVALISDDGSNKFYADSVKGRFTISRDNSKNTLYLQMNSLRAEDTAAYYCAREGVYFDSGTYRGYFDYWGQETLVTVSS
VL: EIVLTQSPATLSLSPGERATLSCRASQSVSSYLAWYQQKPGQAPRLLIYDASNRATGIPARFSGSGSGTDFTLTISSLEPEDFAVYYCQQRSHWPPITFGQGTRLEIK
B9: TCN-526 (5084_C17) (antibody, V domains shown)
VH: EVLMVESGGGLVQPGGSVRLSCVASGFSFSSHWMTWVRQAPGKGLEWVANIEDDGGDKYYVDSVKGRFIISRDNAKNSVYLQMNSLRAEDTAVYFCARGSGSSDRSDYDPHYYYYLDVWGKGATVTVSS
VL: DIQLTQSPSSLSASVGDRVTITCRASQSISRYLNWYQQKPGKAPKLLLFAASTLLDGVPSRFSGSGSGTDFTLTISSLQPEDFATYYCQRNHSPSWTFGQGTRVEIK
B10: TCN-527 (5086_C06) (antibody, V domains shown)
VH: QVQLQESGPGLVKPSETLSLNCAVSGGSISNYYWSWIRQPPGKGLEWIGYISYNGRPKYNPSLTSRVTISVDTSKDQFSLELRSVTAADTALYYCARETRFGELLSPYDAFEIWGQGTMVTVSS
VL: DIQMTQSPSSLSASVGDRVTMTCRASQNIRSYLNWYQQRPGTAPKLLIYAASTLHSGVPSRFSGGGSGTDFTLTINNLQPEDFASYYCQQSYDNPQTFGQGTKVEIK
B11: TCN-535 (5246_P19) (antibody, V domains shown)
VH: QVQLVQSGSEVKKPGTSVKVSCTASGSVFTNYGISWVRQAPGQGLEWMGGIIPLFGAAKYAQKFQGRVTITADESTKTVYMELSRLTSKDTAIYFCAKAPRVYEYYFDQWGQGTPVTVSS
VL: EIVLTQSPGTLSLSPGERATLSCRASQSVSSSQLAWYQQKPGQAPRLIIYGASTRATGIPDRFSGSGSGTDFTLTIGRLEPEDFAVFFCQQYSTSPPTFGQGTKVDFK
B12: TCN-528 (5087_P17) (antibody, V domains shown)
VH: QVQLVQSGSEVKKPGASVKVSCKASGYTFTNYDINWIRQAPGQGLEWMGWINPNSGTTGSAQRFQGRVTITVDTSITTVYMELSSLRSDDTAIYYCARGRELLRLQHFLTDSQSERRDCFDPWGQGTLVTVSS
VL: DIQMTQSPSSLSASVGDRVTITCRANQDIGIYLNWYQQNPGKVPKLLLHGASSLQGGVPSRFSASGSGTDFTLTIHSLQPEDLATYYCQQSRRLPYTFGQGTRVELK
B13: TCN-531 (5091_H13) (antibody, V domains shown)
VH: EVQLVESGGDLVQPGRSLKLSCTGSGFTFGDYGVTWVRQAPGKGLEWVGFIRTRPWGGTADTAASVKGRFTISRDDSKSLAYLQMNSLKTEDTAVYYCCRDAPPNVEVASMTNWYFDLWGRGTLVTVSS
VL: DIQLTQSPSSLSASVGDRVTITCRASQGILNCLAWYQQKPGKVPNLLMYAASTLQSGVPSRFSGSGFGTDFTLTISSLQPEDVATYYCQTYGGVSTFGGGTKVEIR
B14: TCN-532 (5262_H18) (antibody, V domains shown)
VH: QVQLQESGPGLVKPSETLSLTCTVSGGSVSSETYYWSWIRQPPGKGLEWIGYIYYIGNTDYRPSLKSRVTISLDTSKNQFSLKLSSVTAADTAVYYCARGAYYDSSGYPAFYIWGQGTMVTVSS
VL: QSVLTQPPSVSGAPGQRVTISCTGSSSNIGSDYDVHWYKQLPGTAPKLLIFGNSNRPSGVPDRFSGSKSGTSASLAITGLQAEDEADYYCQSYDSSLSGFHVFGSGTKVTVL
B15: TCN-536 (5095_N01) (antibody, V domains shown)
VH: QVQLQQWGAGLLKPSETLSLTCAVYGGSFSVSGYYWSWIRQPPGRGLEWIGEISHGGSTNYNPSLKSRVTISVDTTKNQFSLRLSSVTAADTAVYYCARGTDPDTEVYCRVGNCAAFDYWGQGSLVTVSS
VL: EIILAQSPGTLSLSPGERATLSCRASQFVSTRSLAWYQQRPGQAPRLLIYGASSRATGIPDRFSGSGSGTDFTLTISRLEPEDFAVYYCQHYGYSPRYAFGQGSKVEIK

target: Hemagglutinin of influenza A/Solomon Islands/3/06 (H1N1), on inactivated whole virions (Influenza A virus A/Solomon …); assay: ELISA, B cell culture supernatant on inactivated whole virions

Binder | OD450 [OD450]
B1 | 3.47
B2 | 3.62
B3 | 3.54
B4 | 0.07
B5 | 3.52
B6 | 3.7
B7 | 3.55
B8 | 0.06
B9 | 0.06
B10 | 3.03
B11 | 3.43
B12 | 3.62
B13 | 3.23
B14 | 0.06
B15 | 3.63
